Reference: patent US20210403546A1 (published 2021)

B1: 13A1_2F Fab (LCR13A1_VK_GLv1_05 + LCR13A1_VH_GLv1_03, stable Fab) (Fab, V domains shown)
VH: QVQLVQSGSVLAKPGASVKVSCKASGYTFTNYWMHWVRQAPGQGLEWIGTIYPGNSDTNYNQKFKDRAKLTAVTSTSTVYMELSSLRSEDTAVYYCTREDSRSLYYNGWDYFDYWGQGTLVTVSS
VL: DIVMTQSPDSLAVSLGERATISCRASESVDNYGISFLNWFQQKPGQPPKLLIYAASNQGSGVPSRFSGSGSGTDFTLNIHPLEAEDAATYYCQQSKEVPRTFGGGTKVEIK
B2: 13A1_2B Fab (LCR13A1_VH_GLv1_03_LCR13A1_VK_GLv3, stable Fab) (Fab, V domains shown)
VH: B1 VH
VL: DIVMTQSPDSLAVSLGERATINCKSSESVDNYGISFLNWFQQKPGKAPKLLIYAASNQGSGVPDRFSGSGSGTDFTLTISSLQAEDVAVYFCQQSKEVPRTFGGGTKLEIK

Biological target: human recombinant TGF-b1 (human, UniProt P01137 279-390)
Sequence (P01137 279-390): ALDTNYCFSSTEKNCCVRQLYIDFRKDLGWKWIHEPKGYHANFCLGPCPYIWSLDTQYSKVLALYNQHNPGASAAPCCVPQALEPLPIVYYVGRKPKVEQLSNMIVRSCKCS
Assay: Biacore SPR

Binder	Kd [nM]
B1	0.639
B2	0.615
